Substrate in the data set: O=C(CNc1ccccc1)[C@H](O)[C@H](O)COP(=O)(O)O
Description: discontinuous spectrophotometric assay of IGP formation (A278). It counts as biochemical, Pseudomonas aeruginosa. To be noted: 50 mM Tris-HCl, 4 mM MgCl2, 0.5 mM TCEP, pH 7.0, 25 °C, substrate made enzymatically in situ from aniline and PRPP, 2.5 μM enzyme.

What is called Km is the substrate concentration at which the rate is half of its maximum. For orientation: kcat means the maximal rate divided by the concentration of active sites.

B1: PaIGPS (Pseudomonas aeruginosa PAO1) (protein)
chain: MSVPTVLQKILARKAEEVAERRARVNLAEVERLARSADAPRGFANALLERAKRKEPAVIAEIKKASPSKGVLREHFVPAEIARSYEAGGAACLSVLTDVDFFQGADAYLKEARAACALPVIRKDFMIDPYQIVEARAIGADCILLIVSALDDVLMAELAATAKSVGLDVLVEVHDGTELERALKTLDTPLVGINNRNLHTFEVSLETTLDLLPEIPRDRLVVTESGILNRADVELMEVSEVYAFLVGEAFMRADDPGLELKRLFFQERGAVVLGADPD
With B1, the Km amounted to 180 ± 50 µM and the kcat is 0.00442 ± 0.000389 s⁻¹.

The values are drawn from PMC7681013, “Structure and kinetics of indole-3-glycerol phosphate synthase from Pseudomonas aeruginosa: Decarboxylation is not essential for indole formation” (The Journal of Biological Chemistry, 2020).
